Source: the supplement of paper PMC10065799, “High-throughput profiling of sequence recognition by tyrosine kinases and SH2 domains using bacterial peptide display” (eLife, 2023)

Key:
c-Abl (mouse) = assay: phosphorylation enrichment, bacterial display (enrichment ratio); higher = better substrate or ligand; peptides without Tyr show the background
c-Src = assay: as above
Hck = Hck (UniProt P08631); assay: as above
Fer (mouse) = assay: as above
FGFR1 = FGFR1 (UniProt P11362); assay: as above
FGFR3 = FGFR3 (UniProt P22607); assay: as above
Jak2 = Jak2 (UniProt O60674); assay: as above
Fyn = Fyn (UniProt P06241); assay: as above
EPHB2 = EPHB2 (UniProt P29323); assay: as above
EPHB1 = EPHB1 (UniProt P54762); assay: as above
Fes = Fes (UniProt P07332); assay: as above
AncSZ = assay: as above
MERTK = MERTK (UniProt Q12866); assay: as above
SHP2-C SH2 = assay: SH2 binding enrichment of the phosphorylated peptide, bacterial display (enrichment ratio); higher = better substrate or ligand; peptides without Tyr show the background
c-Src SH2 = assay: as above
Grb2 SH2 = Grb2 SH2 (UniProt P62993); assay: as above
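For SH2 binding enrichment of the phosphorylated peptide, bacterial display in this document: peptide library displayed on the E. coli surface as eCPX fusions, selected cells deep-sequenced, score is each peptide's frequency after selection divided by its frequency in the input.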
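For phosphorylation enrichment, bacterial display in this document: 11-residue human phosphosite peptides and single-mutation variants displayed on the E. coli surface, counted by deep sequencing, each peptide's frequency after selection divided by its frequency in the unselected input library; frequency after pTyr selection over input frequency; kinase dosed for 20-30% of maximal phosphorylation in three min.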

Chain of Hck (P08631 whole entry, looked up): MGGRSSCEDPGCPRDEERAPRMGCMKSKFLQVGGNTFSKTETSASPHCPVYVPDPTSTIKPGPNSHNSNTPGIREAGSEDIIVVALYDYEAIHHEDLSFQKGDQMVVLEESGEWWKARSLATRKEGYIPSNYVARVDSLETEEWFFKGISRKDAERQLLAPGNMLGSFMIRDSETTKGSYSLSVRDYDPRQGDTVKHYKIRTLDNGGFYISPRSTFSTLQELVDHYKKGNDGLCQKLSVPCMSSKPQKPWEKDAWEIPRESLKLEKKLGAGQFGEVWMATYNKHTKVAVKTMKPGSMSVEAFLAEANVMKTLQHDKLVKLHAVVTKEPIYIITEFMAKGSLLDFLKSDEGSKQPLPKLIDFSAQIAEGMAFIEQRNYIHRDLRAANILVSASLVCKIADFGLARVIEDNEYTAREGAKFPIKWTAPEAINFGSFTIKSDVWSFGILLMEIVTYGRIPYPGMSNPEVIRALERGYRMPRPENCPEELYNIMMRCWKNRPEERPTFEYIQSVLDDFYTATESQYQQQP
Chain of EPHB1 (P54762 whole entry, looked up): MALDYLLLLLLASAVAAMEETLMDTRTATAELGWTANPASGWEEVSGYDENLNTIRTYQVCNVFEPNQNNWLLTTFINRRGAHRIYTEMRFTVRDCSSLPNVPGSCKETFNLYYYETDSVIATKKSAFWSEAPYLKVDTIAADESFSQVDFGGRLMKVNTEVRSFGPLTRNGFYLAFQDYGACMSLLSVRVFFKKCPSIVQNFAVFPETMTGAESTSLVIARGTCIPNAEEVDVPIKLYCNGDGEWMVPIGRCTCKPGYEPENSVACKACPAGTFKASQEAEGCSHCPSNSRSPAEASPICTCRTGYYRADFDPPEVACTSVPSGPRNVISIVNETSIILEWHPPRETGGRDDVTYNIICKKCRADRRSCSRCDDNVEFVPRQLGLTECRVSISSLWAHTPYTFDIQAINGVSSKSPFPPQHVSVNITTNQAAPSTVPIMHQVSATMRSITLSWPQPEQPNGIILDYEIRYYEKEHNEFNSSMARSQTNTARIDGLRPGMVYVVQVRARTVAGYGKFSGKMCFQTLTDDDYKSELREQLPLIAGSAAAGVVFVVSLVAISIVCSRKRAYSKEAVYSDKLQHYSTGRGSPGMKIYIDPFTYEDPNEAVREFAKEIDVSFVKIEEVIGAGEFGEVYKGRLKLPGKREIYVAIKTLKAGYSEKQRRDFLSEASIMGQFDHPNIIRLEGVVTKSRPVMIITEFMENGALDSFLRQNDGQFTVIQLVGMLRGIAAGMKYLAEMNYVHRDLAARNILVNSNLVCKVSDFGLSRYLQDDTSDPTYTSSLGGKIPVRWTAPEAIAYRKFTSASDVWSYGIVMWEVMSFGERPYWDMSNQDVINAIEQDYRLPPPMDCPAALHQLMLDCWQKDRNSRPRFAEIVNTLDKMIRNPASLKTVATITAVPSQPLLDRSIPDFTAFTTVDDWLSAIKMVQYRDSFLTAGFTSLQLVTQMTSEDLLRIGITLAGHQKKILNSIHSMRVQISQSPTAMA
Chain of Fyn (P06241 whole entry, looked up): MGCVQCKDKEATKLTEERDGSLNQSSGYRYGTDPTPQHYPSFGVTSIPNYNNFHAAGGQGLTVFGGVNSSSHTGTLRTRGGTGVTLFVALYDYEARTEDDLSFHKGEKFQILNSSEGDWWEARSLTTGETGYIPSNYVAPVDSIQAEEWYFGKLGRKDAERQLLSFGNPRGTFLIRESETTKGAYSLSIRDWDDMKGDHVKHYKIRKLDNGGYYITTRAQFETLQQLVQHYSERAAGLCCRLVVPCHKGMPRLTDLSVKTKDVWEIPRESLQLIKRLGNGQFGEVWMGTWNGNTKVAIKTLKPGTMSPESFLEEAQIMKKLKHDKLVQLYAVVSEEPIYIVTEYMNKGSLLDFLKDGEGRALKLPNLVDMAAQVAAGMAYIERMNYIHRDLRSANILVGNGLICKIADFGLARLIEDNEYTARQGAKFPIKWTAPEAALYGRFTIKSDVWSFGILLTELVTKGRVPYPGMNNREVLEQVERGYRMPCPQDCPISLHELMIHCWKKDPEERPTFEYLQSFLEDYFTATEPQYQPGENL
Chain of Jak2 (O60674 whole entry, looked up): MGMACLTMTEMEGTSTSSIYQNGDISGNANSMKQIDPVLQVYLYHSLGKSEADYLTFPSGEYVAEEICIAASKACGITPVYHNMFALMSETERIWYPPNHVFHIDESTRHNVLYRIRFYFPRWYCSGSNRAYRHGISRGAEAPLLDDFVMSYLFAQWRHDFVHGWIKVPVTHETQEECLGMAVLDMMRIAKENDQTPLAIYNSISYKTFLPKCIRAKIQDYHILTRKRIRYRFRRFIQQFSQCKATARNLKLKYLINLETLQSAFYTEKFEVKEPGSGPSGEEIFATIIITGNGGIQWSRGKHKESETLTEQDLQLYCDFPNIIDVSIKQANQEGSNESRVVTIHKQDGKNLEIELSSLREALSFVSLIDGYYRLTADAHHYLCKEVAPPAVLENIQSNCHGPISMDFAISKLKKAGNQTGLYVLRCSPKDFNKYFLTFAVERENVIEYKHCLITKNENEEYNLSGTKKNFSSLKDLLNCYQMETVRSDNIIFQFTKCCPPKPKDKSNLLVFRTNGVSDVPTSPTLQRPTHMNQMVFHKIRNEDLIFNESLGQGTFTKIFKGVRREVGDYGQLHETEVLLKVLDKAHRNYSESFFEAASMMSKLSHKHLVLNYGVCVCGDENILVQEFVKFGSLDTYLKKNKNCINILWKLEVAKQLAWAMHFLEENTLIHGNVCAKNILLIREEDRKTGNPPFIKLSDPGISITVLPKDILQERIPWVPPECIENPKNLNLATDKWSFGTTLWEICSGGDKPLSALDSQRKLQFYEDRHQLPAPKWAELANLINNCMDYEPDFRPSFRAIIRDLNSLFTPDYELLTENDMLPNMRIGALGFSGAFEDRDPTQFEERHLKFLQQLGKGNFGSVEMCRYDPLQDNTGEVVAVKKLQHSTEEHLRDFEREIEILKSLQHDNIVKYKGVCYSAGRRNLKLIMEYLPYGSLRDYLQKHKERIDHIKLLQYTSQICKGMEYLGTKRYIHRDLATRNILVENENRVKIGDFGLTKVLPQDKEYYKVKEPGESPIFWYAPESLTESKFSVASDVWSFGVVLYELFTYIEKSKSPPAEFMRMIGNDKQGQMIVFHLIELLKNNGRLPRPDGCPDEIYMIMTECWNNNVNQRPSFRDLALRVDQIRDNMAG
Chain of FGFR1 (P11362 whole entry, looked up): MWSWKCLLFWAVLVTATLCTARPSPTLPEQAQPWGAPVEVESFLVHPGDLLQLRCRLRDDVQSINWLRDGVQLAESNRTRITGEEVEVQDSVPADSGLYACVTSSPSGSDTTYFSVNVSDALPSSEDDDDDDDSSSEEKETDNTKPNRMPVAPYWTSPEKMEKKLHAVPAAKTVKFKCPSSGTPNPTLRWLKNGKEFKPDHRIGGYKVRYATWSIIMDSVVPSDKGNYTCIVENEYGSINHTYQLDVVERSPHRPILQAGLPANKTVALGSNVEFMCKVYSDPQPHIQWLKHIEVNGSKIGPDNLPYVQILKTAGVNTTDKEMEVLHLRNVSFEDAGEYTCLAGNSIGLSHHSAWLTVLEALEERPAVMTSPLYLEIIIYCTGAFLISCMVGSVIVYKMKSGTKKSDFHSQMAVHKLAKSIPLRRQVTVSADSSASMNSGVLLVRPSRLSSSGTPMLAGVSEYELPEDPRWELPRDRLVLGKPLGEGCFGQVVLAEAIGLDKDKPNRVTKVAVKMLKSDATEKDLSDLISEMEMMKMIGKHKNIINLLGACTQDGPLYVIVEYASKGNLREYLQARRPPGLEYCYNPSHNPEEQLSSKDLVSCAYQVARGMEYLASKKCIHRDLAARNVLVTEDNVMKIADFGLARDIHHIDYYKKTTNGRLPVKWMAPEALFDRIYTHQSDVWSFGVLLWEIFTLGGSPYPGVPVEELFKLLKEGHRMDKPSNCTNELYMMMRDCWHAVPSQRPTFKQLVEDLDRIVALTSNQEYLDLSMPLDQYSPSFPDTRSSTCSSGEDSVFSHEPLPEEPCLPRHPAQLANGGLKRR
Chain of MERTK (Q12866 whole entry, looked up): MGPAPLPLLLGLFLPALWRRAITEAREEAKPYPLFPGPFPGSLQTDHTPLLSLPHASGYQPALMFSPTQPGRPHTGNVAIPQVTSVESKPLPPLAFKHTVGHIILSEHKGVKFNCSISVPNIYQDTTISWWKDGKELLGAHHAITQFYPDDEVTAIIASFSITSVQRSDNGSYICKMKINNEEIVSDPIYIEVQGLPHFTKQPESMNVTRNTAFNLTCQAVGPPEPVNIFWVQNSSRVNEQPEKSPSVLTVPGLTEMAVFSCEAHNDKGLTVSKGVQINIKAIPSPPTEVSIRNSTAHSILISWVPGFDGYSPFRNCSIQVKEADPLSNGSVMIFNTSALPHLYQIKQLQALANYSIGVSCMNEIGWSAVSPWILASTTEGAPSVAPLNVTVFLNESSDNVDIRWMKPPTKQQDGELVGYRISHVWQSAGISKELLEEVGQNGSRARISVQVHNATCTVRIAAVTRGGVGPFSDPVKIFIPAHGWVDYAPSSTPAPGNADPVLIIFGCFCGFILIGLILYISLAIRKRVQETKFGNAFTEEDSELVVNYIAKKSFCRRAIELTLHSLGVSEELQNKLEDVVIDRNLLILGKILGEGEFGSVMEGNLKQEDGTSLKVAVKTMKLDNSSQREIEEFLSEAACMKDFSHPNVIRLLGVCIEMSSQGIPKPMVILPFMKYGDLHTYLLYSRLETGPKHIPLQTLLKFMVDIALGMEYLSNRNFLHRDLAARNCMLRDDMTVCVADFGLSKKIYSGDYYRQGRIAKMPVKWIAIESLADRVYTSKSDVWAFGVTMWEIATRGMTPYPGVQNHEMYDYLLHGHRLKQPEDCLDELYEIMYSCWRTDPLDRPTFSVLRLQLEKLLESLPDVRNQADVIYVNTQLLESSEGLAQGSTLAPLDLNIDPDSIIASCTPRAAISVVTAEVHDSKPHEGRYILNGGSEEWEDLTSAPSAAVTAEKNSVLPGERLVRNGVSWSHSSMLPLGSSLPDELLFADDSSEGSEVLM

Row | SH2 binding enrichment (SHP2-C SH2) | SH2 binding enrichment (c-Src SH2) | SH2 binding enrichment (Grb2 SH2) | Sequence | phosphorylation enrichment (c-Abl (mouse)) | phosphorylation enrichment (c-Src) | phosphorylation enrichment (Hck) | phosphorylation enrichment (Fer (mouse)) | phosphorylation enrichment (FGFR1) | phosphorylation enrichment (FGFR3) | phosphorylation enrichment (Jak2) | phosphorylation enrichment (Fyn) | phosphorylation enrichment (EPHB2) | phosphorylation enrichment (EPHB1) | phosphorylation enrichment (Fes) | phosphorylation enrichment (AncSZ) | phosphorylation enrichment (MERTK)
1 | 0.625 | 0.432 | 0.585 | QSPQLYKQLCI [DARS1_Y253_M256L] | 0.449 | 0.53 | 0.706 | 0.483 | 0.653 | 1.05 | 0.875 | 0.719 | 0.957 | 0.511 | 1.12 | 1.02 | 0.432
2 | 1.12 | 0.464 | 1.17 | LKTNWYNNGKD [DNMT3B_Y404_C403W] | 1.62 | 0.838 | 1.01 | 0.644 | 0.664 | 1.05 | 1.18 | 0.544 | 0.688 | 0.468 | 1.44 | 1.54 | 0.736
3 | 0.863 | 0.58 | 0.923 | AAYNKYDQERF [CDC73_Y293_R292K] | 0.588 | 0.398 | 0.299 | 0.419 | 0.332 | 0.454 | 0.739 | 0.371 | 0.335 | 0.364 | 0.762 | 0.54 | 0.287
4 | 1.59 | 0.816 | 1.32 | PSSNLYYRWLT [CNGA3_Y168] | 7.69 | 4.28 | 8.15 | 6.19 | 13.5 | 9.96 | 7.82 | 3.84 | 4.17 | 3.17 | 1.4 | 1.89 | 12.4
5 | 0.53 | 0.415 | 0.761 | LNERHYGGLTG [PGAM2_Y92] | 0.789 | 0.47 | 0.454 | 0.394 | 0.607 | 0.552 | 4.09 | 0.53 | 0.432 | 0.417 | 0.856 | 0.679 | 0.527
6 | 0.486 | 0.506 | 0.909 | LSPNMYNSKFW [TARSL2_Y457_L461F] | 1.1 | 1.35 | 1.25 | 0.808 | 1.24 | 0.924 | 1.58 | 0.911 | 1.1 | 1.41 | 1.6 | 1.24 | 1.11
7 | 0.983 | 0.455 | 0.912 | LKDEDYLKDIV [HAUS3_Y582] | 1.64 | 1.02 | 0.787 | 1.4 | 1.04 | 0.988 | 2.87 | 0.791 | 0.843 | 0.861 | 1.85 | 2.21 | 0.884
8 | 0.478 | 0.66 | 0.772 | TFEYRYLEDQD [CNOT3_Y746_R750Q] | 0.673 | 0.54 | 0.637 | 0.518 | 0.77 | 0.823 | 0.916 | 0.438 | 0.553 | 0.566 | 1.15 | 1.22 | 0.44
